# Legend:
# Assay in all cases: cell_activity
# [1] = test system: GmFAD3_T09-R1 half-TALEN (synthetic (TAL effector-FokI))
# [2] = test system: GmFAD3_T08-R1 half-TALEN (synthetic (TAL effector-FokI))
# [3] = test system: GmFAD2_T04-R1 half-TALEN (synthetic (TAL effector-FokI)); details: pair with T04-L1 at FAD2-1A (FAD2-1B 3.54)
# [4] = test system: GmFAD2_T02-L1 half-TALEN (synthetic (TAL effector-FokI)); details: pair with T02-R1 at FAD2-1A (FAD2-1B 1.19)
# [5] = test system: GmFAD2_T03-L1 half-TALEN (synthetic (TAL effector-FokI)); details: pair with T03-R1 at FAD2-1A (FAD2-1B 3.94)
# [6] = test system: GmFAD2_T01-L1 half-TALEN (synthetic (TAL effector-FokI)); details: pair with T01-R1 at FAD2-1A (FAD2-1B 3.41); soybean protoplasts
# [7] = test system: GmFAD2_T03-R1 half-TALEN (synthetic (TAL effector-FokI)); details: pair with T03-L1 at FAD2-1A (FAD2-1B 3.94)
# [8] = test system: GmFAD2_T02-R1 half-TALEN (synthetic (TAL effector-FokI)); details: pair with T02-L1 at FAD2-1A (FAD2-1B 1.19)
# [9] = test system: GmFAD3_T08-L1 half-TALEN (synthetic (TAL effector-FokI))
# [10] = test system: GmFAD3_T09-L1 half-TALEN (synthetic (TAL effector-FokI))
# [11] = test system: GmFAD2_T01-R1 half-TALEN (synthetic (TAL effector-FokI)); details: pair with T01-L1 at FAD2-1A (FAD2-1B 3.41)
# [12] = test system: GmFAD2_T04-L1 half-TALEN (synthetic (TAL effector-FokI)); details: pair with T04-R1 at FAD2-1A (FAD2-1B 3.54)
sequence,measurement,setting,value
CACATTGAGAAGGATGA (double strand) [GmFAD3_T08-R1 half-site],activity,"[1]; pair with T08-L1 at FAD3A (FAD3B 1.80), mismatched right half-site, with T09-L1 6.46 (FAD3B 3.61)",6.56 % NHEJ
same,activity,"[2]; pair with T08-L1 at FAD3A (FAD3B 14.57), with T09-L1 12.37 at FAD3A, 11.17 at FAD3B",22.9 % NHEJ
CATGTTGAGAAGGATGA (double strand) [GmFAD3_T09-R1 half-site],activity,"[1]; pair with T09-L1 at FAD3C, with T08-L1 7.60",11.3 % NHEJ
same,activity,"[2]; pair with T09-L1 at FAD3C, mismatched right half-site, with T08-L1 3.59",5.98 % NHEJ
TAGGTGGTGGCAATGTA (double strand) [GmFAD2_T04-R1 half-site],activity,[3],4.67 % NHEJ
TATGTTGTTTATGACCT (double strand) [GmFAD2_T02-L1 half-site],activity,[4],0.91 % NHEJ
TCCTATGTTGTTTATGA (double strand) [GmFAD2_T03-L1 half-site],activity,[5],4.91 % NHEJ
TCTCAAGGGTTCCAAAC (double strand) [GmFAD2_T01-L1 half-site],activity,[6],3.95 % NHEJ
TGGCAATGTAGAAAATG (double strand) [GmFAD2_T03-R1 half-site],activity,[7],4.91 % NHEJ
TGGTGGCAATGTAGAAA (double strand) [GmFAD2_T02-R1 half-site],activity,[8],0.91 % NHEJ
TTAGCCACAGAACTCAC (double strand) [GmFAD3_T08-L1 half-site],activity,"[9]; pair with T08-R1 at FAD3A (FAD3B 14.57), soybean protoplasts 48 h",22.9 % NHEJ
same,activity,"[10]; pair with T08-R1 at FAD3A (FAD3B 11.17), mismatched left half-site",12.4 % NHEJ
TTAGCCACAGGACTCAC (double strand) [GmFAD3_T09-L1 half-site],activity,"[9]; pair with T09-R1 at FAD3C, mismatched left half-site, with T08-R1 3.59",7.6 % NHEJ
same,activity,"[10]; pair with T09-R1 at FAD3C, multiplex T09-L1/T08-R1/T09-R1 21.42 (Table 2)",11.3 % NHEJ
TTGAGTTGGCCAACAGT (double strand) [GmFAD2_T01-R1 half-site],activity,[11],3.95 % NHEJ
TTGTTTATGACCTTTCA (double strand) [GmFAD2_T04-L1 half-site],activity,[12],4.67 % NHEJ
